*1 amine or outer side, *2 acyl side, *3 side chain or, on linkers, in order; H or OH if unused. Where a SMILES comes first, the peptide text is derived from it. Bridges are numbered along the chain shown (N, C = ends). [ ]: non-standard residue; d: D form. X2 = C=C(N[*:2])c1nc(-c2nc(-c3nc(C(=O)OC)cs3)ccc2C(=O)[*:1])cs1; Nle = CCCC[C@H](N)C(=O)O; Dha = C=C(N)C(=O)O
Columns and labels:
[1] = biological target: T1, Human TLR10 Fc Chimera protein (extracellular domain) (Homo sapiens, UniProt Q9BXR5); experiment: Surface plasmon resonance binding to TLR10; conditions: SPR
T1 construct: Chimera protein (extracellular domain, amino acid 20-576;); Fc (chimera); purchased R&D system #6619-TR-050
T1 sequence (Q9BXR5 20-576): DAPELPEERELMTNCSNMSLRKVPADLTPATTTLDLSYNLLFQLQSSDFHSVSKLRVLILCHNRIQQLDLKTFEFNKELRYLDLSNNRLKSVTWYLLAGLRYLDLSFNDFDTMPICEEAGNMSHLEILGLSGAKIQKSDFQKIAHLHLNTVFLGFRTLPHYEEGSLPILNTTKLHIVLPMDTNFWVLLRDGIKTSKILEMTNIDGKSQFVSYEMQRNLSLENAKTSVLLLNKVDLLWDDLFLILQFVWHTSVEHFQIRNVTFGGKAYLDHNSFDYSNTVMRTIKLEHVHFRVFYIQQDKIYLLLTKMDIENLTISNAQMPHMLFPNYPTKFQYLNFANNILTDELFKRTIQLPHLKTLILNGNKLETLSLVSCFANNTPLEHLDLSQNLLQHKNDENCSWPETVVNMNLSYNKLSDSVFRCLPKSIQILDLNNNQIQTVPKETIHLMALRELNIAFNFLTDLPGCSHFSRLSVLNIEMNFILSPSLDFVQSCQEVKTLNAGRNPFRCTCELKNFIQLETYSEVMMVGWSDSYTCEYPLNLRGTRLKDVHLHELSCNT
Experimental: Reagents were purchased from Nacalai Tesque, Wako Pure Chemical Industries, Sigma-Aldrich Japan, or TCI Chemicals and were used as received. […]
Anti-HA magnetic beads were from Pierce Thermo […]
2000c spectrophotometer (Thermo Scientific) equipped with a 5 mm pathlength quartz cuvette using extinction coefficient values calculated with ExPASy ProtParam tool (https://web.expasy.org/protparam). […]
Biochemical measurements (sections 2.10 – 2.14) were performed in triplicate or more. Most […]
determination of biophysical parameters involved cell assay (CP50 and IC50), reported are standard errors of the fit; otherwise, error bars are standard deviations. […]

Serum stability assay = type: in vitro ADME; conditions: pH 7.6; human serum, 37 °C, LC/MS; read-out: serum stability τ1/2 (converted)
Experimental: Next, we tested the metabolic stability of the discovered thiopeptides. The compounds were incubated in human serum at 37 °C in the presence of an internal control, and the amounts of the remaining analytes were quantified by LC/MS (Figures S27 and 28). […] At the other extreme, IR11 rapidly degraded in human serum with τ1/2 = 0.5 h. […]
Kinetic parameters and affinities of the […]
2.12. Thiopeptide metabolic stability experiments
The mixtures were stirred
well and transferred to a 37 °C thermostat. […]

TLR10 [2] = biological target: T2, TLR10 (Homo sapiens, UniProt Q9BXR5); experiment: Single-round mRNA display binding assay (qPCR), TLR10; conditions: ratio of cDNA recoveries (qPCR), TLR10 pulldown over beads only, single-round selection
T2 sequence (Q9BXR5 20-576): T1 sequence (Q9BXR5 20-576)

TLR10 [3] = biological target: T2, TLR10; experiment: mRNA display affinity selection against TLR10, NGS abundance; type: binding; parameters: Chimera protein (extracellular domain, amino acid 20-576;); Fc (chimera); purchased R&D system #6619-TR-050; conditions: TLR10 selection, NGS abundance rank; for rank in pulldown(+): –: not found in the final pulldown(+) libraries at the sequenced depth
IRAK4 = biological target: T3, IRAK4 (Homo sapiens, UniProt Q9NWZ3); experiment: mRNA display affinity selection against IRAK4, NGS abundance; type: binding; parameters: acids 1-460; NP_057207.2) was purchased from Carna Biosciences; purchased Carna Biosciences (Kobe, Japan); conditions: Top100 selection hits, NGS
T3 sequence (Q9NWZ3 1-460): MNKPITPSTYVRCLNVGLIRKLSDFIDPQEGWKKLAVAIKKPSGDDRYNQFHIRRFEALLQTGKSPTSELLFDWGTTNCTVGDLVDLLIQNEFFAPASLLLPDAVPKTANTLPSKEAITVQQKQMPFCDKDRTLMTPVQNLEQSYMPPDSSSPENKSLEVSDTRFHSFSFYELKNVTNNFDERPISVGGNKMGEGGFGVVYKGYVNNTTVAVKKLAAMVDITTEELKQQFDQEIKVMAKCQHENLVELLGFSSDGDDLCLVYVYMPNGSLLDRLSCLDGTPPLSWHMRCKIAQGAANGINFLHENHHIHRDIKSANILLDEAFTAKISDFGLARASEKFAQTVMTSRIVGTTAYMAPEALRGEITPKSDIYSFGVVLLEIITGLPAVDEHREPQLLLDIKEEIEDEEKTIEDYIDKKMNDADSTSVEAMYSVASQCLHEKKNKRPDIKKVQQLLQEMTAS

Compound	Library fraction (IRAK4; IRAK4 selection pulldown (+))	Raw reads (IRAK4; IRAK4 selection pulldown (+))	Library fraction (IRAK4; IRAK4 selection pulldown (-))	Raw reads (IRAK4; IRAK4 selection pulldown (-))	other results
C=C1NC(=O)[C@H](CCCCN)NC(=O)[C@H]([C@@H](C)CC)NC(=O)[C@H](CCCC)NC(=O)[C@H](C(C)C)NC(=O)[C@H](CCCNC(=N)N)NC(=O)CNC(=O)[C@H]([C@@H](C)CC)NC(=O)[C@H](Cc2c[nH]c3ccccc23)NC(=O)c2ccc(-c3nc(C(=O)OC)cs3)nc2-c2csc(n2)C(=C)NC(=O)c2coc1n2 [TL19] (HELM PEPTIDE1{W.I.G.R.V.[Nle].I.K.[C=C(N[*:1])c1nc(C(=O)[*:2])co1]}|CHEM1{[C=C(N[*:2])c1nc(-c2nc(-c3nc(C(=O)OC)cs3)ccc2C(=O)[*:1])cs1]}$PEPTIDE1,CHEM1,1:R1-1:R1|PEPTIDE1,CHEM1,9:R2-1:R2$$$V2.0; bridges inferred)					koff [1]: 0.0032 s⁻¹; kon [1]: 5540 M⁻¹ s⁻¹; half-life at 10 µM (Serum stability assay): 7.4 ± 1.5 h; display P/N ratio (TLR10 [2]): 263; rank in pulldown(–) (TLR10 [3]): 22; rank in pulldown(+) (TLR10 [3]): 16
C=C1NC(=O)[C@H]([C@@H](C)CC)NC(=O)[C@H](CO)NC(=O)[C@H](CC(=O)O)NC(=O)[C@H](CCCNC(=N)N)NC(=O)[C@H](C)NC(=O)[C@H](CCCC)NC(=O)C(=C)NC(=O)CNC(=O)[C@@H]2CCCN2C(=O)[C@H](Cc2c[nH]c3ccccc23)NC(=O)c2ccc(-c3nc(C(=O)OC)cs3)nc2-c2csc(n2)C(=C)NC1=O [TL18] (WPG[Dha][Nle]ARDSI[Dha]; linker N-C via X2)					half-life at 10 µM (Serum stability assay): 2.5 ± 0.1 h; display P/N ratio (TLR10 [2]): 380; rank in pulldown(–) (TLR10 [3]): 10; rank in pulldown(+) (TLR10 [3]): 13
C=C1NC(=O)[C@H](Cc2ccc(O)cc2)NC(=O)[C@H](C)NC(=O)[C@H](C(C)C)NC(=O)[C@H](CCCCN)NC(=O)CNC(=O)[C@H](CC(C)C)NC(=O)[C@H](CCCNC(=N)N)NC(=O)[C@@H]2CCCN2C(=O)[C@H](Cc2ccccc2)NC(=O)[C@H](CCCC)NC(=O)[C@H](CCCC)NC(=O)[C@H]([C@@H](C)O)NC(=O)[C@H](Cc2c[nH]c3ccccc23)NC(=O)c2ccc(-c3nc(C(=O)OC)cs3)nc2-c2csc1n2 [TL9] (HELM PEPTIDE1{W.T.[Nle].[Nle].F.P.R.L.G.K.V.A.Y}|CHEM1{[C=C(N[*:2])c1nc(-c2nc(-c3nc(C(=O)OC)cs3)ccc2C(=O)[*:1])cs1]}$PEPTIDE1,CHEM1,1:R1-1:R1|PEPTIDE1,CHEM1,13:R2-1:R2$$$V2.0)					half-life at 10 µM (Serum stability assay): 1.7 ± 0.1 h; display P/N ratio (TLR10 [2]): 235; rank in pulldown(–) (TLR10 [3]): 37; rank in pulldown(+) (TLR10 [3]): 22
C=C1NC(=O)CNC(=O)[C@H]([C@@H](C)CC)NC(=O)[C@H]([C@@H](C)CC)NC(=O)CNC(=O)[C@H](CCC(N)=O)NC(=O)CNC(=O)[C@H](CCCC(N)=O)NC(=O)[C@H](Cc2c[nH]c3ccccc23)NC(=O)[C@H](C(C)C)NC(=O)[C@H]([C@@H](C)CC)NC(=O)[C@H](CC(N)=O)NC(=O)[C@H](CO)NC(=O)[C@H](Cc2c[nH]c3ccccc23)NC(=O)c2ccc(-c3nc(C(=O)OC)cs3)nc2-c2csc1n2 [TL10] (HELM PEPTIDE1{W.S.N.I.V.W.[O=C([C@H](CCCC(=O)[*:3])N[*:1])[*:2]].G.Q.G.I.I.G}|PEPTIDE2{[am]}|CHEM1{[C=C(N[*:2])c1nc(-c2nc(-c3nc(C(=O)OC)cs3)ccc2C(=O)[*:1])cs1]}$PEPTIDE1,PEPTIDE2,7:R3-1:R1|PEPTIDE1,CHEM1,1:R1-1:R1|PEPTIDE1,CHEM1,13:R2-1:R2$$$V2.0; bridges inferred)					half-life at 10 µM (Serum stability assay): 4.7 ± 0.3 h; display P/N ratio (TLR10 [2]): 352; rank in pulldown(–) (TLR10 [3]): 4; rank in pulldown(+) (TLR10 [3]): 1
C=C1NC(=O)[C@H](Cc2c[nH]c3ccccc23)NC(=O)CNC(=O)[C@H](C(C)C)NC(=O)[C@H](CC(N)=O)NC(=O)CNC(=O)CNC(=O)[C@H](Cc2ccc(O)cc2)NC(=O)[C@@H]2CCCN2C(=O)[C@H](CC(N)=O)NC(=O)[C@H]([C@@H](C)O)NC(=O)[C@H](Cc2c[nH]c3ccccc23)NC(=O)c2ccc(-c3nc(C(=O)OC)cs3)nc2-c2csc1n2 [TL1] (HELM PEPTIDE1{W.T.N.P.Y.G.G.N.V.G.W}|CHEM1{[C=C(N[*:2])c1nc(-c2nc(-c3nc(C(=O)OC)cs3)ccc2C(=O)[*:1])cs1]}$PEPTIDE1,CHEM1,1:R1-1:R1|PEPTIDE1,CHEM1,11:R2-1:R2$$$V2.0; bridges inferred)					half-life at 10 µM (Serum stability assay): 4.6 ± 0.3 h; display P/N ratio (TLR10 [2]): 127; rank in pulldown(–) (TLR10 [3]): 1; rank in pulldown(+) (TLR10 [3]): 3
SRLWRRRIFQ	0.0001	10	9e-5	12	
SMQRRVIKWTWA			0.00016	21	
RTRWKCKMYH	0.0002	20			
RTYWKRRCYA	0.0076	814	0.00332	444	
TQRYRWRNYK	0.0001	9			
AMSLYWARRRPH	0.0028	304	0.00857	1144	
GMKRQFITWHWT			7e-5	10	
STRWNNRIWR	0.0001	9			
TMKRIVINWGWG			0.0001	14	
CQCWNRRNWT	0.0003	35	0.00037	49	
RLLWKRRNYQ	0.0002	25	0.00025	33	
SMLFKRRMYK	0.0003	27	0.00019	26	
RTFWRRRRYH	0.0004	44	0.00039	52	
TLLWKRRNWA	0.0007	76	0.00043	57	
SLYWKSRIWR	0.0026	283	0.00072	96	
TMRWKRRNWA			0.00026	35	
